In paper PMC8469834 one finds stoichiometry N and binding data, which are given here for five substances.

Data set [1] has as its target CzcR3, the response regulator of two-component system CzcRS3 (Pseudomonas putida KT2440) (UniProt F6KX51). As to the kind of experiment: electrophoresis analysis; purified His-tagged CzcR3 alone, in vitro; kind of gel and conditions not told in the text (Figure S1).
The test system of data set [2] is T1, CadR (Pseudomonas putida KT2440), ORF:5b9d404e.
T1 sequence: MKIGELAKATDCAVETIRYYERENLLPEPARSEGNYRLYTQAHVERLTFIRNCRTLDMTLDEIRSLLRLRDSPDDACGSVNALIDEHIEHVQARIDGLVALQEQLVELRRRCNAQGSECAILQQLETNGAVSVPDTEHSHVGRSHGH
Kind of data set: EMSA. Conditions: 10 mM Tris-HCl pH 8.0, 50 mM KCl, 5 mM MgCl2, 5% glycerol, 28 °C 20 min; EMSA 10 nM FAM probe (carbamyl phosphate with CzcR3); footprinting 40 nM probe, about …. A general note: Mobility shift assays separate free from complexed probe on a gel.

Data set [3] relates to T2, CzcR3 (Pseudomonas putida KT2440), ORF:67c4da9b.
T2 sequence: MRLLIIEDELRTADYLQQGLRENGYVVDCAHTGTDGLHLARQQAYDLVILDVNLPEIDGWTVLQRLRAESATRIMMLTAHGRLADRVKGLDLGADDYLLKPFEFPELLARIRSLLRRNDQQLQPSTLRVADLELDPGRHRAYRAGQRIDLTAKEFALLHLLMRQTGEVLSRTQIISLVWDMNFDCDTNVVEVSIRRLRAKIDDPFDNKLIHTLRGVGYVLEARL
Kind of data set: EMSA. To be noted: 10 mM Tris-HCl pH 8.0, 50 mM KCl, 5 mM MgCl2, 5% glycerol, 28 °C 20 min; EMSA 10 nM FAM probe (carbamyl phosphate with CzcR3); footprinting 40 nM probe, about ….

The test system is the same in data set [4]. As to the kind of experiment: DNase I footprinting. Conditions: 10 mM Tris-HCl pH 8.0, 50 mM KCl, 5 mM MgCl2, 5% glycerol, 28 °C 20 min; EMSA 10 nM FAM probe (carbamyl phosphate with CzcR3); footprinting 40 nM probe, about ….
The test system of data set [5] is T1, CadR (Pseudomonas putida KT2440), ORF:5b9d404e. As to the kind of experiment: DNase I footprinting. To be noted: 10 mM Tris-HCl pH 8.0, 50 mM KCl, 5 mM MgCl2, 5% glycerol, 28 °C 20 min; EMSA 10 nM FAM probe (carbamyl phosphate with CzcR3); footprinting 40 nM probe, about ….

As to “CzcR3, the response regulator of two-component system CzcRS3 (from UniProt F6KX51 1-224) (natural protein)”, the stoichiometry N (commonly a count of units in the complex or per binding partner) in data set [1] is 2.

On to “TGTAAAACGACGGCCAGTTACAGGCGCGGGTTTACTCGCGAAGAGGCCCGAACAGACAGCCAGATAACAGCAGAATTACAAATCCGTTATCTGCACCGCAGGCCTTTTTTCATGCCGTAACATTGGGGCGCTTGACAAAGATGTCACTACAAAGTCAAGAATCGTCCCCTTTCAACATACCGAGCCCCCCATG (double strand) [czcRS3 (czcR3) promoter probe, mutated CadR site]”, for which, in data set [2], the binding result was “no binding”.

Regarding “GATTATCGAACTTATTGGGCGTTGACTGTCCTGTACCCAGCCGTGCAAAGCTGCTTCTGCAACGAACCGCAGTGCGTCATTACAAAATTGTAATCTTGCCGCCACCGCCCCGATAACCAGCCCTTTCTACAGTCCCTGGCCAATGCT (double strand) [czcC2 (czcCBA2) promoter probe]”, the binding entry in data set [3] and in data set [4] was “binds” throughout.

As for “TGTAAAACGACGGCCAGTTACAGGCGCGGGTTTACTCGCGAAGAGGCCCGAACAGACAGCCAGATAACAGCAGAATTACAAATCCGTTATCTGCACCGCAGGCCTTTTTTCATGCCGTAACATTGGGGCGCTTGACCCTGATGTCACTACAGGGTCAAGAATCGTCCCCTTTCAACATACCGAGCCCCCCATG (double strand) [czcRS3 (czcR3) promoter probe, native]”, the binding result in data set [2], in data set [3], in data set [5] and in data set [4] was “binds” throughout.

Consider “GTATCGAAATCATCGTGTCGGGTTGGGTTTCCCAGTATTTACGGGCATTACAAAGCTTTCTTACGAAATTGTAATTTTCTAGCCACCCCTCTGATAGCTACCGCTCATTAGAGTGCCATCACCTAATCAAGTGGGGCTTGGCAGCTGTTTCGGCGTTCTCGCCAAGCTTTATCGAAGTTTGTGCACGAGGACCATCAAAGTGCCCCGGTATAACCGCA (double strand) [czcC1 (czcCBA1) promoter probe]”, for which the binding entry in data set [3] and in data set [4] was “binds” each time.
